From PMC7116145
Each block holds one substance with its values, some of them ahead of it.

Columns and labels:
[1] = target: CPTX, biotinylated on a C-terminal Avitag (immobilised in SPR) (UniProt P23435); assay: SPR
[2] = target: NP1PTX fused to the C-terminus of a three-stranded GCN4 coiled coil (UniProt Q15818); assay: SEC-MALS
[3] = target: CPTX-HIS, purified recombinant (UniProt P23435); assay: SEC-MALS

Sequence of human β-neurexin-1 LNS6 domain including spliced sequence #4 (P58400 86-295): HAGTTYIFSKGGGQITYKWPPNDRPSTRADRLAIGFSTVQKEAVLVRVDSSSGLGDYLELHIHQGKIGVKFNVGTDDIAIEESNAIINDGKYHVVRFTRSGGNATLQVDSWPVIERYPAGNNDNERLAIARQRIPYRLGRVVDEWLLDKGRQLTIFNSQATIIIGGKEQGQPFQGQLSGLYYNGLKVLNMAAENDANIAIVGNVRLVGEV

Kd [1]: 4.9 nM
Substance: human β-neurexin-1 LNS6 domain including spliced sequence #4 (from UniProt P58400 86-295) (domain or fragment)

stoichiometry N [2]: 3
Substance: NP1PTX fused to the C-terminus of a three-stranded GCN4 coiled coil (from UniProt Q15818 224-431)

stoichiometry N [3]: 6
Substance: CPTX-HIS, purified recombinant (from UniProt P23435 22-53; Q15818 224-431) (designed binder)
